Measured values published in patent publication US20230241072A1 (ALMAC DISCOVERY, published 2023).
Numbering of substitutions follows the chain as printed. Names may count otherwise.

B1: hFc - P3A1 (Fc fusion)
chain: GGGGSGGGGSGGGGSTRVDQTPRTATKETGESLTINCVLTDTSYGLYSTSWFRKNPGTTDWERMSIGGRYVESVNKGAKSFSLRIKDLTVADSATYYCKAREARHPWLRQWYDGAGTVLTVN
notes: VNAR at the C-terminus of the Fc, by the printed name; not shown: human IgG1 Fc domain
B2: B1V15 hFc (Fc fusion)
chain: ASVTQSPRSASKETGESLTITCRVTGANYGLAATYWYRKNPGSSNQERISISGRYSESVNKRTMSFSLRISSLTVEDSATYYCKAYPWGAGAPWLVQWYDGQGTKLEVKGGGGSGGGGSGGGGS
notes: Humanised B1 variant fused to hFc; not shown: human IgG1 Fc domain
B3: P3A1 hFc(442) (Fc fusion)
chain: TRVDQTPRTATKETGESLTINCVLTDTSYGLYSTSWFRKNPGTTDWERMSIGGRYVESVNKGAKSFSLRIKDLTVADSATYYCKAREARHPWLRQWYDGAGTVLTVNGGGGSGGGGSGGGGS
notes: hIgG1 Fc with S442C (EU); also called P3A1hFc(S442C); not shown: human IgG1 Fc domain
B4: P3A1 hFc (Fc fusion)
chain: B3 chain
notes: VNAR fused to engineered hIgG1 Fc via [G4S]3; also called P3A1hFc(S239C); not shown: human IgG1 Fc domain
B5: 2V hFc (Fc fusion)
chain: B3 chain with R86Q, E87S, A88L, R89A, H90I, P91S, W92T, L93R, R94S, Q95Y
notes: Control VNAR from a naive library, no known target; not shown: human IgG1 Fc domain

Tests used:
[1] = target: T1, human ROR1-hFc fusion protein (extracellular domain) (human, UniProt Q01973 30-406); experiment: SPR (Pioneer) or BLI (Octet K2); ROR1-hFc extracellular domain amine-coupled
T1 construct: extracellular domain; Immobilised by amine coupling on COOH2 chips or AR2G sensors; also called hROR1; not shown: human Fc (hFc)
Description: (§1) VNARs were genetically fused to engineered hIgG1 Fc domains via standard [G₄S]₃ that contained a cysteine substitution in the hIgG1 Fc sequence, S239C (EU numbering). The VNAR Fc fusion proteins were expressed as secreted protein in CHO K1 cells and purified from the media using MabSelect™ SuRe™ (Evitria, Switzerland). Purified proteins were analysed by SEC (AdvanceBio, Agilent), SDS PAGE and mass spectrometry to confirm sequence and protein integrity. Binding kinetics were determined using a Pioneer Surface Plasmon Resonance (SPR) instrument (SensiQ/Pall ForteBio), or the Biolayer Interferometry (BLI) Octet K2 system (ForteBio). ROR1-hFc or ROR2-hFc fusion proteins (extracelluar domains) were immobilised in sodium acetate pH5 buffer to COOH₂ chips or AR2G sensors using amine coupling. VNARs and VNAR-Fc molecules were tested at various concentrations and the Ka (M⁻¹ s⁻¹), Kd (s⁻¹) and KD (nM) values were determined using QDat software (SensiQ/Pall ForteBio) or Octet Data Analysis High Throughput software (ForteBio) for Biolayer Interferometry.

[2] = target: T2, human ROR2-hFc fusion protein (extracellular domain) (human, UniProt Q01974 34-403); experiment: SPR (Pioneer) or BLI (Octet K2); ROR2-hFc extracellular domain amine-coupled
T2 construct: extracellular domain; Immobilised by amine coupling; also called hROR2; not shown: human Fc (hFc)
Description: as §1

Binder | koff [1] [s⁻¹] | binding result [2] | Kd [1] [nM] | kon [1] [M⁻¹ s⁻¹] | binding result [1]
B1 | 0.000776 | no binding |  |  | 
B2 | 0.00013 | no binding | 0.726 | 179000 | 
B3 | 0.0002 | no binding | 0.741 | 270000 | 
B4 | 0.000564 | no binding |  |  | 
B5 |  | no binding |  |  | no binding
